From patent US20120316071A1 (published 2012)

Experiments:
[1] = molecular target: T1, rHuman CD44/Fc Chimera, CF (R&D Systems Cat#3660-CD) (human, UniProt P16070 21-220); assay: Multispot ECL (MSD), antigen spotted on plate, Fab 36 nM; blank spot 413
T1 construct: Bought recombinant protein; Fc part of the bought chimera not given

[2] = molecular target: T2, rHuman ErbB2/Fc Chimera, CF (R&D Systems Cat#1129-ER) (human, UniProt P04626 23-652); assay: as above
T2 construct: Bought recombinant protein; also called human epidermal growth factor 2 receptor (ErbB2); Fc part of the bought chimera not given

[3] = molecular target: T3, rHuman Erythropoietin R/Fc Chimera, CF (R&D Systems Cat#963-ER) (human, UniProt P19235 25-250); assay: as above
T3 construct: Bought recombinant protein; also called EPO R/Fc; Epo R; Fc part of the bought chimera not given
T3 sequence (looked up): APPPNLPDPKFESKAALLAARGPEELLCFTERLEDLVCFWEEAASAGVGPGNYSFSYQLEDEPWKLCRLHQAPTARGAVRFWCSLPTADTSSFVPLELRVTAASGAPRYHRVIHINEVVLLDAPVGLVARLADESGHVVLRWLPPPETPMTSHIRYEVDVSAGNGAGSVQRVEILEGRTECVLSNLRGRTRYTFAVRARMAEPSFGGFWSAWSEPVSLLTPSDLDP

[4] = molecular target: T4, rHuman IGF-1 sR, CF (R&D Systems Cat#391-GR) (human, UniProt P08069 31-932); assay: as above
T4 construct: Bought recombinant soluble receptor; also called insulin-like growth factor-1 soluble receptor

[5] = molecular target: T5, rHuman HGF R/c-MET/Fc Chimera, CF (R&D Systems Cat#358-MT/CF) (human, UniProt P08581 25-932); assay: as above
T5 construct: Bought recombinant protein; also called HGF R/Fc; hepatocyte growth factor receptor (HGF R/c-Met); Fc part of the bought chimera not given

[6] = molecular target: T6, rHuman P-Cadherin/Fc Chimera, CF (R&D Systems Cat#861-PC) (human, UniProt P22223 108-654); assay: as above
T6 construct: Bought recombinant protein; Fc part of the bought chimera not given

[7] = molecular target: T1, rHuman CD44/Fc Chimera, CF (R&D Systems …); assay: Multispot ECL (MSD), antigen spotted on plate, Fab 360 nM; blank spot 462
[8] = molecular target: T2, rHuman ErbB2/Fc Chimera, CF (R&D …); assay: as above
[9] = molecular target: T3, rHuman Erythropoietin R/Fc Chimera, CF …; assay: as above
[10] = molecular target: T4, rHuman IGF-1 sR, CF (R&D Systems …); assay: as above
[11] = molecular target: T5, rHuman HGF R/c-MET/Fc Chimera, CF (R&D …); assay: as above
[12] = molecular target: T6, rHuman P-Cadherin/Fc Chimera, CF (R&D …); assay: as above
[13] = molecular target: T7, rHuman CD44/Fc Chimera, CF (R&D Systems Cat#3660-CD) (human, UniProt P16070 21-220); assay: ECL multispot (MSD), 20 nM Fab;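 also: purified Fab binding to antigens on multispot plates, read by electrochemiluminescence with a TAG-labelled detection antibody, 1 h Fab incubation at 20 °C, signal expressed relative to each well's blank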
T7 construct: Bought recombinant protein; Fc part of the bought chimera not given

[14] = molecular target: T8, rHuman HGF R/c-MET/Fc Chimera, CF (R&D Systems Cat#358-MT/CF) (human, UniProt P08581 25-932); assay: ECL multispot (MSD), 20 nM Fab;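 also: purified Fab binding to antigens on multispot plates, read by electrochemiluminescence with a TAG-labelled detection antibody, 1 h Fab incubation at 20 °C, signal expressed relative to each well's blank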
T8 construct: Bought recombinant protein; also called HGF R/Fc; hepatocyte growth factor receptor; Fc part of the bought chimera not given

[15] = molecular target: T9, rHuman P-Cadherin/Fc Chimera, CF (R&D Systems Cat#861-PC) (human, UniProt P22223 108-654); assay: ECL multispot (MSD), 20 nM Fab;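 also: purified Fab binding to antigens on multispot plates, read by electrochemiluminescence with a TAG-labelled detection antibody, 1 h Fab incubation at 20 °C, signal expressed relative to each well's blank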
T9 construct: Bought recombinant protein; Fc part of the bought chimera not given

[16] = molecular target: T10, rHuman EGF R/Fc Chimera, CF (R&D Systems Cat#344-ER) (human, UniProt P00533 25-645); assay: ECL multispot (MSD), 20 nM Fab;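 also: purified Fab binding to antigens on multispot plates, read by electrochemiluminescence with a TAG-labelled detection antibody, 1 h Fab incubation at 20 °C, signal expressed relative to each well's blank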
T10 construct: Bought recombinant protein; also called epidermal growth factor receptor; Fc part of the bought chimera not given

[17] = molecular target: T11, rHuman IGF-1 sR, (IGF-1 sR), CF (R&D Systems Cat#391-GR) (human, UniProt P08069 31-932); assay: ECL multispot (MSD), 20 nM Fab
T11 construct: Bought recombinant soluble receptor; also called insulin-like growth factor-1 soluble receptor

[18] = molecular target: T12, Recombinant Human DLL4 (R&D Systems Cat#1506-D4/CF) (human, UniProt Q9NR61 27-524); assay: ECL multispot (MSD), 20 nM Fab
T12 construct: Bought recombinant protein; also called delta-like protein 4; rHuman DLL4

[19] = molecular target: T13, rHuman Erythropoietin R/Fc Chimera, CF (R&D Systems Cat#963-ER) (human, UniProt P19235 25-250); assay: ECL multispot (MSD), 20 nM Fab
T13 construct: Bought recombinant protein; also called EPO R; EPO R/Fc; Fc part of the bought chimera not given
T13 sequence (looked up): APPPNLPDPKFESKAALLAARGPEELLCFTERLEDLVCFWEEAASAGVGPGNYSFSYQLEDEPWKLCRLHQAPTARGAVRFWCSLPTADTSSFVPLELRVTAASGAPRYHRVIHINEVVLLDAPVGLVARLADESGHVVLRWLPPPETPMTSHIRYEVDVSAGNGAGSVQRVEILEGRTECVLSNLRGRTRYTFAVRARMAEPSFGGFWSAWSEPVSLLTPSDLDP

[20] = molecular target: T14, rHuman Notch-1/Fc Chimera, CF (R&D Systems Cat#3647-TK) (human, UniProt P46531 19-526); assay: ECL multispot (MSD), 20 nM Fab
T14 construct: Bought recombinant protein; Fc part of the bought chimera not given

[21] = molecular target: T15, rHuman ErbB2/Fc Chimera, CF (R&D Systems Cat#1129-ER) (human, UniProt P04626 23-652); assay: ECL multispot (MSD), 20 nM Fab
T15 construct: Bought recombinant protein; also called human epidermal growth factor 2 receptor; Fc part of the bought chimera not given

[22] = molecular target: T16, rHuman ErbB2/Fc Chimera, CF (R&D Systems Cat#1129-ER) (human, UniProt P04626 23-652); assay: ECL multispot (MSD) binding assay, antigens spotted on plate, 20 nM Fab;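 also: fab incubated 1 h at 20 °C on antigen-spotted wells, bound Fab detected by TAG-labelled antibody, ratio of 4 or more over blank counted as a hit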
T16 construct: Bought recombinant protein; also called human epidermal growth factor 2 receptor; Fc part of the bought chimera not given

[23] = molecular target: T17, rHuman CD44/Fc Chimera, CF (R&D Systems Cat#3660-CD) (human, UniProt P16070 21-220); assay: as above
T17 construct: Bought recombinant protein; Fc part of the bought chimera not given

[24] = molecular target: T18, Recombinant Human DLL4 (R&D Systems Cat#1506-D4/CF) (human, UniProt Q9NR61 27-524); assay: as above
T18 construct: Bought recombinant protein; also called delta-like protein 4; rHuman DLL4

[25] = molecular target: T19, rHuman P-Cadherin/Fc Chimera, CF (R&D Systems Cat#861-PC) (human, UniProt P22223 108-654); assay: as above
T19 construct: Bought recombinant protein; Fc part of the bought chimera not given

[26] = molecular target: T20, rHuman EGF R/Fc Chimera, CF (R&D Systems Cat#344-ER) (human, UniProt P00533 25-645); assay: as above
T20 construct: Bought recombinant protein; also called epidermal growth factor receptor; Fc part of the bought chimera not given

[27] = molecular target: T21, rHuman HGF R/c-MET/Fc Chimera, CF (R&D Systems Cat#358-MT/CF) (human, UniProt P08581 25-932); assay: as above
T21 construct: Bought recombinant protein; also called HGF R/Fc; hepatocyte growth factor receptor; Fc part of the bought chimera not given

[28] = molecular target: T22, rHuman Notch-1/Fc Chimera, CF (R&D Systems Cat#3647-TK) (human, UniProt P46531 19-526); assay: as above
T22 construct: Bought recombinant protein; Fc part of the bought chimera not given

[29] = molecular target: T23, rHuman IGF-1 sR, (IGF-1 sR), CF (R&D Systems Cat#391-GR) (human, UniProt P08069 31-932); assay: as above
T23 construct: Bought recombinant soluble receptor; The column head prints only 'IGF-1'; also called insulin-like growth factor-1 soluble receptor

[30] = molecular target: T24, rHuman Erythropoietin R/Fc Chimera, CF (R&D Systems Cat#963-ER) (human, UniProt P19235 25-250); assay: as above
T24 construct: Bought recombinant protein; also called EPO R; Epo R; Fc part of the bought chimera not given
T24 sequence (looked up): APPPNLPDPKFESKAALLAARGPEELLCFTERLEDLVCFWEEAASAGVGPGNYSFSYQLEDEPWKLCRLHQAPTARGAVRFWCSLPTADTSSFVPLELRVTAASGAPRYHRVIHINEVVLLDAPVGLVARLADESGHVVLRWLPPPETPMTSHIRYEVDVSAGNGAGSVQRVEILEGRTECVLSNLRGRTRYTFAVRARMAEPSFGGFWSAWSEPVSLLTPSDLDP

B1: Fab VH4-28_IGHD7-27*01_IGHJ1*01 & L2_IGKJ1*01 (Fab, V domains shown)
VH: QVQLQESGPGLVKPSDTLSLTCAVSGYSISSSNWWGWIRQPPGKGLEWIGYIYYSGSTYYNPSLKSRVTMSVDTSKNQFSLKLSSVTAVDTAVYYCARTNWGAEYFQHWGQGTLVTVSS
VL: not shown
ECL signal [1]: 679 | ECL signal [2]: 600 | ECL signal [3]: 2980 | ECL signal [4]: 486 | ECL signal [5]: 613 | ECL signal [6]: 693 | ECL signal [7]: 740 | ECL signal [8]: 647 | ECL signal [9]: 4720 | ECL signal [10]: 535 | ECL signal [11]: 581 | ECL signal [12]: 636

B2: Fab VH3-23_IGHD2-21*01>3_IGHJ6*01 H100E/S108P/Y113G (EPG) Y109P & V2-13_IGLJ2*01 (Fab, V domains shown)
VH: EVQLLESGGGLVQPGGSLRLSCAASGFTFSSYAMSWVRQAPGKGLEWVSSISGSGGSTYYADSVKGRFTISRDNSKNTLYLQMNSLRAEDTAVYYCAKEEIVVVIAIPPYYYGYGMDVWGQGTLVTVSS
VL: SSELTQDPAVSVALGQTVRITCQGDSLRSYYASWYQQKPGQAPVLVIYGKNNRPSGIPDRFSGSSSGNTASLTITGAQAEDEADYYCNSRDSSGNHLVVFGGGTKLTVL
notes: Fab; NNK mutant of the EPG heavy chain; CH1 (tags) and lambda CL come from the vectors
ECL signal ratio (column head gives no unit) [13]: 1.1 | ECL signal ratio (column head gives no unit) [14]: 1.8 | ECL signal ratio (column head gives no unit) [15]: 1.9 | ECL signal ratio (column head gives no unit) [16]: 1.6 | ECL signal ratio (column head gives no unit) [17]: 1.4 | ECL signal ratio (column head gives no unit) [18]: 1.6 | ECL signal ratio (column head gives no unit) [19]: 1.8 | ECL signal ratio (column head gives no unit) [20]: 1.1 | ECL signal ratio (column head gives no unit) [21]: 1.5

B3: Fab VH3-23_IGHD2-21*01>3_IGHJ6*01 H100E/S108P/Y113G Y110E & V2-13_IGLJ2*01 (Fab, V domains shown)
VH: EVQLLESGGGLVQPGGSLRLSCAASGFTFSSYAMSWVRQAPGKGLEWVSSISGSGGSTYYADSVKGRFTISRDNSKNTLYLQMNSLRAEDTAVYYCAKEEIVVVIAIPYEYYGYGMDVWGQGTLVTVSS
VL: SSELTQDPAVSVALGQTVRITCQGDSLRSYYASWYQQKPGQAPVLVIYGKNNRPSGIPDRFSGSSSGNTASLTITGAQAEDEADYYCNSRDSSGNHLVVFGGGTKLTVL
notes: Tested as Fab made in E. coli: VH joined to CH1 (His and Flag tags), VL joined to lambda CL; also called EPG Y110E
ECL multispot signal (ratio to blank; column not labelled) [22]: 1.7 | ECL multispot signal (ratio to blank; column not labelled) [23]: 1.3 | ECL multispot signal (ratio to blank; column not labelled) [24]: 1.8 | ECL multispot signal (ratio to blank; column not labelled) [25]: 2 | ECL multispot signal (ratio to blank; column not labelled) [26]: 1.6 | ECL multispot signal (ratio to blank; column not labelled) [27]: 1.8 | ECL multispot signal (ratio to blank; column not labelled) [28]: 1.5 | ECL multispot signal (ratio to blank; column not labelled) [29]: 1.4 | ECL multispot signal (ratio to blank; column not labelled) [30]: 2.2
